Laboratory results from patent publication US20160024200A1 (published 2016).

Assays:
[1] = target: T1, human granulocyte macrophage colony-stimulating factor (GM-CSF) (human, UniProt P04141 18-144); assay: cell-based or functional assay
[2] = target: T1, human granulocyte macrophage …; assay: cell-based or functional assay; remark: listed apart in the source
[3] = target: T1, human granulocyte macrophage …; assay: cell-based or functional assay; remark: listed apart in the source
[4] = target: T1, human granulocyte macrophage …; assay: SPR, Biacore 3000, mAb captured on anti-human IgG, GM-CSF as analyte, 25 C
Method: The SPR experiments were performed at 25° C. on a Biacore 3000 (GE Healthcare, Piscataway, N.J.) using a CM5 sensor chip and HBS-P (10 mM HEPES, pH 7.4, 150 mM NaCl, 0.01% P-20) or HBS-EP (10 mM HEPES, pH 7.4, 150 mM NaCl, 3 mM EDTA, 0.01% P-20). Anti-human IgG (Fc) (GE Healthcare) or anti-human IgG (Southern Biotech, cat. #2040-01) was immobilized similarly on the experimental and reference flow cells using standard amine coupling. […] GM-CSF made in-house or purchased (Genscript, Cat. #Z00349), was injected over the mAb-coated cell and reference cell at the following concentrations: 100, 50, 25, 12.5, 6.25, 3.12, 1.5 and 0.8 nM. The flow rate was 30 μL/min and triplicate blank injections and replicate injections of the 12.5 nM GM-CSF were included to account for any drift and to ensure assay reproducibility. […] To regenerate the capture surface, two 30 sec pulses of a 2:1 mixture of glycine (pH 2) to 3 M MgCI was utilized. All data were double reference subtracted in that they were subtracted both from the reference cell and from a blank injection. Data were fit to a 1:1 model with (for those with very fast on-rates) or without a mass transport term using the Biacore 3000 evaluation software.

T1 sequence (P04141 18-144 limits assumed): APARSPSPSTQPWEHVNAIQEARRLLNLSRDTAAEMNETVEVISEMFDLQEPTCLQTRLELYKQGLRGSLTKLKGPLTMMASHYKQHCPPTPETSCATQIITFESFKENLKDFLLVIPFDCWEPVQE

- IC50, TF-1 assay [1]: < 1 ng/mL
- IC50, TF-1 assay (200 pg/mL GM-CSF) [1]: 0.7 to 0.8 ng/mL
- IC50 (ng/mL), TF-1 assay [2]: 0.8 ng/mL
- IC50 (read off the curve); CD11b on human neutrophils in whole blood with 10 ng/mL GM-CSF (FACS), % inhibition [3]: ~50 ng/mL
- Kd [4]: 0.12 nM
- koff [4]: 0.0001 s⁻¹
- kon [4]: 830000 M⁻¹ s⁻¹
B1: F1 human monoclonal antibody against GM-CSF (antibody, V domains shown)
VH: QVQLQESGPGVVKPSETLSLTCSVSDSAIRKYYWSWIRQPPGQGLEYIGYIYASGSSFYNPSFKSRVSMSVDATNNQFYLKLTSVTAADTAVYYCAAITGTTDLWGRGTLVTVSS
VL: DIQMTQSPSSVSASVGDRVTITCRASQGINRRLAWYQQKPGKAPKRLIYAVSTLQSGVPSRFNGSGSGTDFTLTVNNVQPDDLAMYFCLQSNNYPLTFGGGTKVEIK
notes: also called F1 antibody; purified F1
